Laboratory results from patent publication US20260184782A1 (TWIST BIOSCIENCE, published 2026).

T1: human TIGIT-Fc (human, UniProt Q495A1 22-141, limits assumed)
T1 construct: not shown: Fc; not described
T1 sequence (looked up): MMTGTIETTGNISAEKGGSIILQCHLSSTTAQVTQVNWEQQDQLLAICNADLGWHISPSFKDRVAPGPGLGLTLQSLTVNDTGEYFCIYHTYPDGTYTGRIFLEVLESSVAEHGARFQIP

B1: TIGIT-SC39 (Fc fusion)
VHH: EVQLVESGGGLVQPGGSLRLSCAASGRTVSSHAMGWFRQAPGKEREFVAAITSSGSTYYADSVKGRFTISADNSKNTAYLQMNSLKPEDTAVYYCASSYSSSSGLGDIWGQGTLVTVSS
notes: VHH-Fc
B2: TIGIT-SC45 (Fc fusion)
VHH: EVQLVESGGGLVQPGGSLRLSCAASGGTFNAMGWFRQAPGKEREWVASVLRGGYTWYADSVKGRFTISADNSKNTAYLQMNSLKPEDTAVYYCAKDGGSSGTYQNWWGQGTLVTVSS
notes: VHH-Fc
B3: TIGIT-SC29 (Fc fusion)
VHH: EVQLVESGGGLVQPGGSLRLSCAASGFTLENNMMGWFRQAPGKERELVAAIDWSGGSTIYADSVKGRFTISADNSKNTAYLQMNSLKPEDTAVYYCARGHDYGDYIAYWGQGTLVTVSS
notes: VHH-Fc
B4: TIGIT-SC43 (Fc fusion)
VHH: EVQLVESGGGLVQPGGSLRLSCAASGFTFADYAMGWFRQAPGKEREMVAAIGWNSGTTEYADSVKGRFTISADNSKNTAYLQMNSLKPEDTAVYYCARDTNGWFFDFWGQGTLVTVSS
notes: VHH-Fc
B5: TIGIT-SC34 (Fc fusion)
VHH: EVQLVESGGGLVQPGGSLRLSCAASGTTFSPYTMGWFRQAPGKEREFVASINSGSRTNYADSVKGRFTISADNSKNTAYLQMNSLKPEDTAVYYCVRSEIGWGQGTLVTVSS
notes: VHH-Fc
B6: TIGIT-SC44 (Fc fusion)
VHH: EVQLVESGGGLVQPGGSLRLSCAASGSIFGLGAMGWFRQAPGKERELVAITWGGSTTLYADSVKGRFTISADNSKNTAYLQMNSLKPEDTAVYYCATDQGQWLFDFWGQGTLVTVSS
notes: VHH-Fc
B7: TIGIT-SC40 (Fc fusion)
VHH: EVQLVESGGGLVQPGGSLRLSCAASGFSFDRWAMGWFRQAPGKERELVARISWNGGSTYYADSVKGRFTISADNSKNTAYLQMNSLKPEDTAVYYCARDDGWLQFMHWGQGTLVTVSS
notes: VHH-Fc
B8: TIGIT-SC35 (Fc fusion)
VHH: EVQLVESGGGLVQPGGSLRLSCAASGFTLENNMMGWFRQAPGKERELVAAISMSGDDTIYADSVKGRFTISADNSKNTAYLQMNSLKPEDTAVYYCARQGDTVMVSGIDYWGQGTLVTVSS
notes: VHH-Fc
B9: TIGIT-SC32 (Fc fusion)
VHH: EVQLVESGGGLVQPGGSLRLSCAASGFAFGDSWMGWFRQAPGKERELVAAIDWSGGSALYADSVKGRFTISADNSKNTALQMNSLKPEDTAVYYCAKVHSDFRAGWDVWGQGTLVTVSS
notes: VHH-Fc
B10: TIGIT-SC33 (Fc fusion)
VHH: EVQLVESGGGLVQPGGSLRLSCAASGFLFDSYAMGWFRQAPGKEREFVAAVSQSGLLTFYADSVKGRFTISADNSKNTAYLQMNSLKPEDTAVYYCASRTSSWWWFDPWGQGTLVTVSS
notes: VHH-Fc
B11: TIGIT-SC27 (Fc fusion)
VHH: EVQLVESGGGLVQPGGSLRLSCAASGLTFSNYVMGWFRQAPGKEREVVAGILSDGRELYADSVKGRFTISADNSKNTAYLQMNSLKPEDTAVYYCARDVFGEGHWGQGTLVTVSS
notes: VHH-Fc
B12: TIGIT-SC30 (Fc fusion)
VHH: EVQLVESGGGLVQPGGSLRLSCAASGRSFSSDWIGWFRQAPGKERELVAAIDWSGGSALYADSVKGRFTISADNSKNTAYLQMNSLKPEDTAVYYCARVNWNNVGWFDPWGQGTLVTVSS
notes: VHH-Fc
B13: TIGIT-SC28 (Fc fusion)
VHH: EVQLVESGGGLVQPGGSLRLSCAASGRTFSTDAMGWFRQAPGKEREFVATINWKDGFTYYADSVKGRFTISADNSKNTAYLQMNSLKPEDTAVYYCAGVGHDYGDYLFDYWGQGTLVTVSS
notes: VHH-Fc

These binders were tested against T1, human TIGIT-Fc (assay: CD155 competition ELISA, single point; further: test concentration or dose not given here).
Procedure: TIGIT/CD155 inhibition of VHH-Fcs were assessed using an ELISA assay (Table 10B). Briefly, human TIGIT-Fc was coated on a plate & then incubated with VHH-Fcs and human CD155-biotin. Bound CD155-biotin was detected using a streptavidin-HRP conjugate visualized with TMB. Strong inhibitors from the single point screen were titrated to determine EC50 (Table 10C).

Binder	OD (450 nm)
B1	0.652 OD
B2	0.359 OD
B3	0.399 OD
B4	0.64 OD
B5	0.4 OD
B6	0.359 OD
B7	0.613 OD
B8	0.42 OD
B9	0.86 OD
B10	0.764 OD
B11	0.505 OD
B12	0.495 OD
B13	0.539 OD
